# Patent publication US20140348819A1, “Methods of Treating Cancer” (Dana-Farber Cancer Institute, Inc., priority 2011, published 2014)
# B1: GDNF (protein, UniProt P39905 78-211, looked up)
# Glial cell line-derived …: SPDKQMAVLPRRERNRQAAAANPENSRGKGRRGQRGKNRGCVLTAIHLNVTDLGLGYETKEELIFRYCSGSCDAAETTYDKILKNLSRNRRLVSDKVGQACCRPIAFDDDLSFLDDNLVYHILRKHSAKRCGCI
# System: six V600E BRAF melanoma cell lines
# Assay: Screening of recombinant RTK ligands for ability to confer resistance to BRAFi (PLX4720) or MEKi (PD184352) (Table 4)
# Format: cell-based, human
# Design: ability of recombinant RTK ligand to confer resistance / ability of recombinant RTK ligand to confer resistance (screening value): scale not given here
# Method in brief: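 Resistance to BRAFi (PLX4720) or MEKi (PD184352) was tested in six V600E BRAF melanoma lines given one of 22 recombinant RTK ligands. For a subset of RTKs, activation was checked by high-throughput tyrosine kinase phosphorylation profiling and western blot.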
molecule,measurement,setting,value
B1,ability of recombinant RTK ligand to confer resistance,"A2058, PD184352 - 1 uM, ligand 0.4 ng/ml",0.98
same,ability of recombinant RTK ligand to confer resistance,"A2058, PD184352 - 1 uM, ligand 1.6 ng/ml",1.03
same,ability of recombinant RTK ligand to confer resistance,"A2058, PD184352 - 1 uM, ligand 6.25 ng/ml",1.00
same,ability of recombinant RTK ligand to confer resistance,"A2058, PD184352 - 1 uM, ligand 25 ng/ml",0.93
same,ability of recombinant RTK ligand to confer resistance,"A2058, PD184352 - 1 uM, ligand 100 ng/ml",0.92
same,ability of recombinant RTK ligand to confer resistance,"A2058, PLX4720 - 2 uM, ligand 0.4 ng/ml",0.97
same,ability of recombinant RTK ligand to confer resistance,"A2058, PLX4720 - 2 uM, ligand 1.6 ng/ml",0.97
same,ability of recombinant RTK ligand to confer resistance,"A2058, PLX4720 - 2 uM, ligand 6.25 ng/ml",0.98
same,ability of recombinant RTK ligand to confer resistance,"A2058, PLX4720 - 2 uM, ligand 25 ng/ml",0.94
same,ability of recombinant RTK ligand to confer resistance,"A2058, PLX4720 - 2 uM, ligand 100 ng/ml",0.97
same,ability of recombinant RTK ligand to confer resistance,"C32, PD184352 - 1 uM, ligand 0.4 ng/ml",1.08
same,ability of recombinant RTK ligand to confer resistance,"C32, PD184352 - 1 uM, ligand 1.6 ng/ml",1.13
same,ability of recombinant RTK ligand to confer resistance,"C32, PD184352 - 1 uM, ligand 6.25 ng/ml",1.03
same,ability of recombinant RTK ligand to confer resistance,"C32, PD184352 - 1 uM, ligand 25 ng/ml",0.96
same,ability of recombinant RTK ligand to confer resistance,"C32, PD184352 - 1 uM, ligand 100 ng/ml",0.94
same,ability of recombinant RTK ligand to confer resistance,"C32, PLX4720 - 2 uM, ligand 0.4 ng/ml",1.04
same,ability of recombinant RTK ligand to confer resistance,"C32, PLX4720 - 2 uM, ligand 1.6 ng/ml",1.11
same,ability of recombinant RTK ligand to confer resistance,"C32, PLX4720 - 2 uM, ligand 6.25 ng/ml",1.03
same,ability of recombinant RTK ligand to confer resistance,"C32, PLX4720 - 2 uM, ligand 25 ng/ml",0.91
same,ability of recombinant RTK ligand to confer resistance,"C32, PLX4720 - 2 uM, ligand 100 ng/ml",0.94
same,ability of recombinant RTK ligand to confer resistance,"Colo 829, PD184352 - 1 uM, ligand 0.4 ng/ml",0.95
same,ability of recombinant RTK ligand to confer resistance,"Colo 829, PD184352 - 1 uM, ligand 1.6 ng/ml",0.96
same,ability of recombinant RTK ligand to confer resistance,"Colo 829, PD184352 - 1 uM, ligand 6.25 ng/ml",0.96
same,ability of recombinant RTK ligand to confer resistance,"Colo 829, PD184352 - 1 uM, ligand 25 ng/ml",1.07
same,ability of recombinant RTK ligand to confer resistance,"Colo 829, PD184352 - 1 uM, ligand 100 ng/ml",0.98
same,ability of recombinant RTK ligand to confer resistance,"Colo 829, PLX4720 - 2 uM, ligand 0.4 ng/ml",1.00
same,ability of recombinant RTK ligand to confer resistance,"Colo 829, PLX4720 - 2 uM, ligand 1.6 ng/ml",1.00
same,ability of recombinant RTK ligand to confer resistance,"Colo 829, PLX4720 - 2 uM, ligand 6.25 ng/ml",0.96
same,ability of recombinant RTK ligand to confer resistance,"Colo 829, PLX4720 - 2 uM, ligand 25 ng/ml",1.09
same,ability of recombinant RTK ligand to confer resistance,"Colo 829, PLX4720 - 2 uM, ligand 100 ng/ml",1.00
same,ability of recombinant RTK ligand to confer resistance,"G-361, PD184352 - 1 uM, ligand 0.4 ng/ml",1.00
same,ability of recombinant RTK ligand to confer resistance,"G-361, PD184352 - 1 uM, ligand 1.6 ng/ml",0.94
same,ability of recombinant RTK ligand to confer resistance,"G-361, PD184352 - 1 uM, ligand 6.25 ng/ml",1.04
same,ability of recombinant RTK ligand to confer resistance,"G-361, PD184352 - 1 uM, ligand 25 ng/ml",0.92
same,ability of recombinant RTK ligand to confer resistance,"G-361, PD184352 - 1 uM, ligand 100 ng/ml",0.95
same,ability of recombinant RTK ligand to confer resistance,"G-361, PLX4720 - 2 uM, ligand 0.4 ng/ml",0.94
same,ability of recombinant RTK ligand to confer resistance,"G-361, PLX4720 - 2 uM, ligand 1.6 ng/ml",0.94
same,ability of recombinant RTK ligand to confer resistance,"G-361, PLX4720 - 2 uM, ligand 6.25 ng/ml",0.93
same,ability of recombinant RTK ligand to confer resistance,"G-361, PLX4720 - 2 uM, ligand 25 ng/ml",0.87
same,ability of recombinant RTK ligand to confer resistance,"G-361, PLX4720 - 2 uM, ligand 100 ng/ml",0.79
same,ability of recombinant RTK ligand to confer resistance,"SK-MEL-5, PD184352 - 1 uM, ligand 0.4 ng/ml",0.99
same,ability of recombinant RTK ligand to confer resistance,"SK-MEL-5, PD184352 - 1 uM, ligand 1.6 ng/ml",0.89
same,ability of recombinant RTK ligand to confer resistance,"SK-MEL-5, PD184352 - 1 uM, ligand 6.25 ng/ml",1.03
same,ability of recombinant RTK ligand to confer resistance,"SK-MEL-5, PD184352 - 1 uM, ligand 25 ng/ml",0.94
same,ability of recombinant RTK ligand to confer resistance,"SK-MEL-5, PD184352 - 1 uM, ligand 100 ng/ml",0.93
same,ability of recombinant RTK ligand to confer resistance,"SK-MEL-5, PLX4720 - 2 uM, ligand 0.4 ng/ml",1.04
same,ability of recombinant RTK ligand to confer resistance,"SK-MEL-5, PLX4720 - 2 uM, ligand 1.6 ng/ml",0.71
same,ability of recombinant RTK ligand to confer resistance,"SK-MEL-5, PLX4720 - 2 uM, ligand 6.25 ng/ml",1.00
same,ability of recombinant RTK ligand to confer resistance,"SK-MEL-5, PLX4720 - 2 uM, ligand 25 ng/ml",1.01
same,ability of recombinant RTK ligand to confer resistance,"SK-MEL-5, PLX4720 - 2 uM, ligand 100 ng/ml",1.08
same,ability of recombinant RTK ligand to confer resistance,"SK-MEL-28, PD184352 - 1 uM, ligand 0.4 ng/ml",0.99
same,ability of recombinant RTK ligand to confer resistance,"SK-MEL-28, PD184352 - 1 uM, ligand 1.6 ng/ml",1.03
same,ability of recombinant RTK ligand to confer resistance,"SK-MEL-28, PD184352 - 1 uM, ligand 6.25 ng/ml",1.02
same,ability of recombinant RTK ligand to confer resistance,"SK-MEL-28, PD184352 - 1 uM, ligand 25 ng/ml",0.92
same,ability of recombinant RTK ligand to confer resistance,"SK-MEL-28, PD184352 - 1 uM, ligand 100 ng/ml",0.96
same,ability of recombinant RTK ligand to confer resistance,"SK-MEL-28, PLX4720 - 2 uM, ligand 0.4 ng/ml",1.04
same,ability of recombinant RTK ligand to confer resistance,"SK-MEL-28, PLX4720 - 2 uM, ligand 1.6 ng/ml",0.91
same,ability of recombinant RTK ligand to confer resistance,"SK-MEL-28, PLX4720 - 2 uM, ligand 6.25 ng/ml",1.05
same,ability of recombinant RTK ligand to confer resistance,"SK-MEL-28, PLX4720 - 2 uM, ligand 25 ng/ml",0.97
same,ability of recombinant RTK ligand to confer resistance,"SK-MEL-28, PLX4720 - 2 uM, ligand 100 ng/ml",1.01
